Experimental data reported in publication PMC10160606, “Identification of GA20ox2 as a target of ATHB2 and TCP13 during shade response”.

Molecular target: T1, ATHB2 (UniProt Q05466 1-284)
T1 sequence: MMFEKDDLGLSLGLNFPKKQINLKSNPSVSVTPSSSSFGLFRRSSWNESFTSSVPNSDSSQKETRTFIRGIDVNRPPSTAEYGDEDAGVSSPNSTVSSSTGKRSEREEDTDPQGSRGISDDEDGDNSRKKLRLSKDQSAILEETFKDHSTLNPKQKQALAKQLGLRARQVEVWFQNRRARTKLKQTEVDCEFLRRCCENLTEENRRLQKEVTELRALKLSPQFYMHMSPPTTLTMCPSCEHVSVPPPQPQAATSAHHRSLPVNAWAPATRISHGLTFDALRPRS
Assay: EMSA; 100x unlabeled identical oligonucleotide used as competitor in a separate lane; LightShift Chemiluminescent EMSA Kit (Thermo Fisher) per manufacturer; native gel; buffer, salt, pH and temperature not stated
Conditions: protein: recombinant; tags: 6xHis (pET-28a); chain copies: 2; label: 3' biotin on both strands; blunt

B1: GA20ox2 promoter ABS1 31-mer (dsDNA)
DNA 1: CAATTTGAAGACAATGTTAGGAATTAGTTAC
DNA 2: GTAACTAATTCCTAACATTGTCTTCAAATTG
B1: binds.
